Experimental data published in patent publication US20110046075A1 (published 2011).

Tests used:
[1] = target: T1, Native complement component C3, purified from human plasma (human, UniProt P01024 23-1663, intact thioester (native form)); assay: cell-based or functional assay
[2] = target: T1, Native complement component C3, …; assay: SPR (Biacore 2000), Efb-C immobilized, native C3 as analyte, surface heterogeneity model, primary site (~90% of the total binding)
[3] = target: T2, Recombinant C3dg (E. coli, pET30 vector with S-tag) (human, UniProt P01024 955-1303); assay: SPR (Biacore 2000), Efb-C immobilized, C3dg as analyte, 1:1 Langmuir model
T2 construct: domain: C3dg; not shown: S-tag from the pET30 vector
T2 sequence (P01024 955-1303): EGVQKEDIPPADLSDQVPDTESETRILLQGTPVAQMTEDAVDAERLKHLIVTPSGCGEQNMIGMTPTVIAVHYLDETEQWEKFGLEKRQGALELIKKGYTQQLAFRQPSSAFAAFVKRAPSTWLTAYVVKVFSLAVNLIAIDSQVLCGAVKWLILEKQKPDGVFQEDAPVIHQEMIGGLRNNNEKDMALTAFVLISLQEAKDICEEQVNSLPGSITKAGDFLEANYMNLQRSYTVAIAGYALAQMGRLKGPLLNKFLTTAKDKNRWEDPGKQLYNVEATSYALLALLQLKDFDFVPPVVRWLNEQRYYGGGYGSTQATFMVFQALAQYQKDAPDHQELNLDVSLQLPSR

Hydrolyzed C3 (C3(H2O)) [4] = target: T3, Hydrolyzed C3 (C3(H2O)) (human, UniProt P01024 23-1663, thioester hydrolyzed); assay: SPR (Biacore 2000), Efb-C immobilized, C3(H2O) as analyte, 1:1 Langmuir model; Kd=koff/kon
T3 construct: mature; Prepared according to established protocols
T3 sequence (P01024 23-1663): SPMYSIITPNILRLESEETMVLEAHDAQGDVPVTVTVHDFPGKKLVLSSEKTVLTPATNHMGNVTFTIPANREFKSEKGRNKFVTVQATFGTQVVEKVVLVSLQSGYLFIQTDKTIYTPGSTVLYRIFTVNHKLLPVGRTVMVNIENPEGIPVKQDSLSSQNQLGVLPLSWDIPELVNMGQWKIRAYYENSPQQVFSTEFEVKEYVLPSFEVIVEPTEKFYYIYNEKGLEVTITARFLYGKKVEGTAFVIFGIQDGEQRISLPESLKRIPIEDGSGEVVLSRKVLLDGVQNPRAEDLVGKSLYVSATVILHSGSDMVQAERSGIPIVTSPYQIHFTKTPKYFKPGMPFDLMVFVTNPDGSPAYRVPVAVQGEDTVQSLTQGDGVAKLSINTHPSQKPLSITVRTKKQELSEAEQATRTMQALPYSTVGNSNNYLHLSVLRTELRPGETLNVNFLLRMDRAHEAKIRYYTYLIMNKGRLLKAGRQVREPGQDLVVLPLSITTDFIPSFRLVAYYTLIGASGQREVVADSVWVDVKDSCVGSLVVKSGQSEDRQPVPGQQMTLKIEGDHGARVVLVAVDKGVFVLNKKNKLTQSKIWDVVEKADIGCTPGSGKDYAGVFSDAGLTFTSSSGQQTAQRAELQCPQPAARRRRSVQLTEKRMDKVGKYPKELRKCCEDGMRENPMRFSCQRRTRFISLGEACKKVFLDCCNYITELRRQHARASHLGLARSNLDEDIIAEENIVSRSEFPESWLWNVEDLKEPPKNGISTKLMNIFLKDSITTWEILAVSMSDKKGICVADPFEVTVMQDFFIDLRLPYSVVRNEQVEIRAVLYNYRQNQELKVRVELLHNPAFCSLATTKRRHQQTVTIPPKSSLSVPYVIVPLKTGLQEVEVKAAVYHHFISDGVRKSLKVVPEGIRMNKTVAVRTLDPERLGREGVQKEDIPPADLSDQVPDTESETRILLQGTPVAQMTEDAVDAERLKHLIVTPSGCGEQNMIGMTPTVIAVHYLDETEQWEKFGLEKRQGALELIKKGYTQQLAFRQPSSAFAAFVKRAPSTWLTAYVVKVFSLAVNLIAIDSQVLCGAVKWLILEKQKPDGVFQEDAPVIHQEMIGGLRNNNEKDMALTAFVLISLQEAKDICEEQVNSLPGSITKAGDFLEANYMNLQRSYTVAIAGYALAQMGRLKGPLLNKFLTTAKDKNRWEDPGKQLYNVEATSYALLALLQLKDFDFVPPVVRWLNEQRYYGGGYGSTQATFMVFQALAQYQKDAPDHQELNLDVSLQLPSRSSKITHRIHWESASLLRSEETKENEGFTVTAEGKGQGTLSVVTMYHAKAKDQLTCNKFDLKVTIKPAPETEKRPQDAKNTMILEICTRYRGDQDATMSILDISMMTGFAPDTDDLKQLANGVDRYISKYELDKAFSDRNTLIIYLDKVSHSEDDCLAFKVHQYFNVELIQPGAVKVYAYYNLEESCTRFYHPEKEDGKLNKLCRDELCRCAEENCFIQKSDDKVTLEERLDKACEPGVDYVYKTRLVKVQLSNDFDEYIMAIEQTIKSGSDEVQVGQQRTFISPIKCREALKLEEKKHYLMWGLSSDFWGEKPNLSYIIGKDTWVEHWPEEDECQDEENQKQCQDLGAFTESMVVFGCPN

C3b [5] = target: T4, C3b (human, UniProt P01024 23-667; P01024 749-1663, limits assumed); assay: SPR kinetics, Efb-C immobilized
T4 construct: domain: C3b; Prepared according to established protocols
T4 sequence (P01024 23-667 limits assumed, chain 1 of 2): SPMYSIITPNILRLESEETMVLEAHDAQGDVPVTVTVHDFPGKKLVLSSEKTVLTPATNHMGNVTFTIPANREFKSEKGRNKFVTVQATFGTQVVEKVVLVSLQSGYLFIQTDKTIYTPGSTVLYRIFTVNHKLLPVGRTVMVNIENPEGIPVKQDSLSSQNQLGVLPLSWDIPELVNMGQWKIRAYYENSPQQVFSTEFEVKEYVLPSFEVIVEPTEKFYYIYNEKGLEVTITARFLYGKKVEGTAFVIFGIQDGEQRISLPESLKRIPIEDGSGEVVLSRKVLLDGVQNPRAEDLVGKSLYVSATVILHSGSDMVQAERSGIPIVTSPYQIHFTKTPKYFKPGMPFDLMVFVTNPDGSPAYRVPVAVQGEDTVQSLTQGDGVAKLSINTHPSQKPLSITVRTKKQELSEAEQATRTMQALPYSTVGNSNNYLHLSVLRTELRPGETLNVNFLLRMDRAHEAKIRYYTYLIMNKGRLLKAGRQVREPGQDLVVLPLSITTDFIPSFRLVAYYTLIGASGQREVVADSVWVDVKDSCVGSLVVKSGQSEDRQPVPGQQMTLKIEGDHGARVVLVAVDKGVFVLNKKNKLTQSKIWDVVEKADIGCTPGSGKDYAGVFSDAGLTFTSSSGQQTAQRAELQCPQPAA
T4 sequence (P01024 749-1663 limits assumed, chain 2 of 2): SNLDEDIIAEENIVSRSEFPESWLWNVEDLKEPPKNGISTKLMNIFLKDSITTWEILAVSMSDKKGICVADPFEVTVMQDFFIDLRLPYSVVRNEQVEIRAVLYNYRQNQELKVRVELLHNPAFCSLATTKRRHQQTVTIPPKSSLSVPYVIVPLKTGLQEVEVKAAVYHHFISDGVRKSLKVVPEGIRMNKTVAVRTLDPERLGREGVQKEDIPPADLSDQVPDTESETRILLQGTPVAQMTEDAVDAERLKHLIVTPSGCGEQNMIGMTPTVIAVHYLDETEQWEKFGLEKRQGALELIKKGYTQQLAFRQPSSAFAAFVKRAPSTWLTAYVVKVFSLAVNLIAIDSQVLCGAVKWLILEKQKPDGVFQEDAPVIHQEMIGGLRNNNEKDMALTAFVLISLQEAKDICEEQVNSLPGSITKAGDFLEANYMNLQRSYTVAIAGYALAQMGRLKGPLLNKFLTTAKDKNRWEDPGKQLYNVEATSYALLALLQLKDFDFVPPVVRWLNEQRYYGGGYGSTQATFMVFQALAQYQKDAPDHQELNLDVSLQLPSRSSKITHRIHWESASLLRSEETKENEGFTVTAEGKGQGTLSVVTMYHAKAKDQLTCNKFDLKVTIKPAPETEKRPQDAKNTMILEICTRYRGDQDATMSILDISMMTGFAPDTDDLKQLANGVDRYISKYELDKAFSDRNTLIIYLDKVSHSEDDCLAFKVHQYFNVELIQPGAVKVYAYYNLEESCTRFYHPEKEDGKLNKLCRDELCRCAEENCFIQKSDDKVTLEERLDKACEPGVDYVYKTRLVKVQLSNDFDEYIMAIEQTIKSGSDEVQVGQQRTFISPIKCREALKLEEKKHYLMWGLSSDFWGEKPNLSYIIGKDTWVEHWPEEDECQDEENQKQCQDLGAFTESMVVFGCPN

Hydrolyzed C3 (C3(H2O)) [6] = target: T3, Hydrolyzed C3 (C3(H2O)); assay: SPR kinetics, Efb-C immobilized
C3b [7] = target: T4, C3b; assay: SPR (Biacore 2000), Efb-C immobilized, C3b as analyte, 1:1 Langmuir model; Kd=koff/kon
Hydrolyzed C3 (C3(H2O)) [8] = target: T3, Hydrolyzed C3 (C3(H2O)); assay: SPR (Biacore 2000), Efb-C immobilized, C3(H2O) as analyte, 1:1 Langmuir model
Procedure: (§1) Surface Plasmon Resonance of Efb Binding to Components of the Complement System. All SPR experiments were performed on a Biacore X (ranking) or Biacore 2000 (kinetic profiling) biosensor at 25° C. using 10 mM PBS-T (10 mM sodium phosphate, pH 7.4, 150 mM NaCl, 0.005% Tween-20) as running buffer. […] A separate flow cell was only activated and deactivated, and served as reference surface. 200 nM solutions of the C3 fragments were injected for 3 min at a flow rate of 20 μl/min with a dissociation phase of 3 min. The Efb-C surface was regenerated with two consecutive 30 s pulses of 0.1% SDS and re-equilibrated in running buffer for 10 min. For the kinetic SPR studies, Efb-C was immobilized at lower density (200 RU) and the flow rate was kept at 30 μl/ml in order to avoid mass transport effects. C3 fragments were screened as threefold dilution series (67-0.09 nM; 200-0.09 nM for C3b) in running buffer with injection and dissociation phases of 5 and 10 min, respectively. In order to ensure full reconstitution of the surface after regeneration, the equilibration phase was increased to 30 min. Three buffer blanks were included in each analysis and their average signals were subtracted from the processed sample responses (double referencing). […] The equilibrium dissociation constant (Kd) was calculated from the kinetic parameters as Kd=koff/kₒₙ. […]

[9] = target: T1, Native complement component C3, …; assay: SPR (Biacore 2000), Efb-C immobilized, native C3 as analyte, surface heterogeneity model, primary site; Kd=koff/kon
C3c = target: T5, C3c (human, UniProt P01024 23-667; P01024 749-954; P01024 1321-1663); assay: SPR, Efb-C immobilized, C3c injected, response divided by MW
T5 construct: domain: C3c; Prepared according to established protocols; also called C3c fragment
T5 sequence (P01024 23-667 limits assumed, chain 1 of 3): as the sequence (P01024 23-667 limits assumed, chain 1 of 2) above
T5 sequence (P01024 749-954 limits assumed, chain 2 of 3): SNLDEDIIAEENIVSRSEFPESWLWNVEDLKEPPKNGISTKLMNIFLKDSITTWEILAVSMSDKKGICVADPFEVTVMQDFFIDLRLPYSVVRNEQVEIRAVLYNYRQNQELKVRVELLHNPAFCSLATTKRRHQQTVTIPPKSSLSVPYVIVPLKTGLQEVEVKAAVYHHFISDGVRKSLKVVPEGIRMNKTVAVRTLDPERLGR
T5 sequence (P01024 1321-1663 limits assumed, chain 3 of 3): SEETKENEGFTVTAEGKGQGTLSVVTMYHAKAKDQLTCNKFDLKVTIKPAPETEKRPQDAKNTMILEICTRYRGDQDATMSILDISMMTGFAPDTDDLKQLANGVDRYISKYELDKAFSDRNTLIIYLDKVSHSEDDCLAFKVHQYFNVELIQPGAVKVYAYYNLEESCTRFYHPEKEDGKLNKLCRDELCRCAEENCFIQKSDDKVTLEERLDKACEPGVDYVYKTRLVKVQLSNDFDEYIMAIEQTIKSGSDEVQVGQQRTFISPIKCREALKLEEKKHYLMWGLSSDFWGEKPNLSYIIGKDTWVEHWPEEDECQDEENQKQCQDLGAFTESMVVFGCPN

[10] = target: T6, Fibrinogen (Fg) from human serum (human, UniProt P02671 20-644; P02675 31-491; P02679 27-437); assay: pull-down from human serum on derivatized sepharose, SDS-PAGE and LC-MS/MS
T6 construct: The three-chain make-up is from general knowledge; also called Fg species
T6 sequence 1: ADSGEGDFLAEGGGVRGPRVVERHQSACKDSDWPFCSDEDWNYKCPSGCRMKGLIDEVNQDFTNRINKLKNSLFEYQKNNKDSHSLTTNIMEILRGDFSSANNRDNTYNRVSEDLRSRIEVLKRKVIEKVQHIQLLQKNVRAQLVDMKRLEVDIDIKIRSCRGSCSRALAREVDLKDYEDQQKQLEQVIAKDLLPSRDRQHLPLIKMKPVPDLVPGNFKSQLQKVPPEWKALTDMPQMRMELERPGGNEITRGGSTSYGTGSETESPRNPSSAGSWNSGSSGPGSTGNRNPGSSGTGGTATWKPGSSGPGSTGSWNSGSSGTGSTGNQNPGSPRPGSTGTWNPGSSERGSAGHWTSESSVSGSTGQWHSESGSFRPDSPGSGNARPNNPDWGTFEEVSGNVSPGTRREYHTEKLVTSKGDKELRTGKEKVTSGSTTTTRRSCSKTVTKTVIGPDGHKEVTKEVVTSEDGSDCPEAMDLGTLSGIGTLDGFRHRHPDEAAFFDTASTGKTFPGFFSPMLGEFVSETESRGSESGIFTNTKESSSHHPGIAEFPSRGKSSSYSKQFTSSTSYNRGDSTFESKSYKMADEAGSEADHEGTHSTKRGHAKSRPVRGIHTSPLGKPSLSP
T6 sequence 2: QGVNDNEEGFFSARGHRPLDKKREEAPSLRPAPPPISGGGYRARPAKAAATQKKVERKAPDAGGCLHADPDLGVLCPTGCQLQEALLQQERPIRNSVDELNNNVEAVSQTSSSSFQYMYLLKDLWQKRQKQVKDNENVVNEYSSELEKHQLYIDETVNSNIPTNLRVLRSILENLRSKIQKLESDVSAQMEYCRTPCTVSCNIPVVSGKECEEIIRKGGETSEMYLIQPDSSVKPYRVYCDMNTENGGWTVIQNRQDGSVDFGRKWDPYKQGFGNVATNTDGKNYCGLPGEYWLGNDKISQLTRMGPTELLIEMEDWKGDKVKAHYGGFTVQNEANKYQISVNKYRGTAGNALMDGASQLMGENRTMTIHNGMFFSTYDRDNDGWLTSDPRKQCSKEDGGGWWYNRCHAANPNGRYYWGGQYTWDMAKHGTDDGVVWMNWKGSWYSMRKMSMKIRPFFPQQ
T6 sequence 3: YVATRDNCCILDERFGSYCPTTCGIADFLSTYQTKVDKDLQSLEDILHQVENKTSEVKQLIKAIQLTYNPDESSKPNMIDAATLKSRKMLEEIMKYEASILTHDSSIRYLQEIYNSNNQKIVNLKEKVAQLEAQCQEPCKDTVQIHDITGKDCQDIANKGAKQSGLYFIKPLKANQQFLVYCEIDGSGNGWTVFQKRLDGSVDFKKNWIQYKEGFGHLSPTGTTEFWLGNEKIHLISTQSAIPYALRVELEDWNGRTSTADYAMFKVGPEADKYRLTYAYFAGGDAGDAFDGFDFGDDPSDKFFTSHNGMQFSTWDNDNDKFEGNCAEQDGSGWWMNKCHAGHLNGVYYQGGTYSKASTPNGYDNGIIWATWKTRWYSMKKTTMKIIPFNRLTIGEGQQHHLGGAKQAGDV

C3b [11] = target: T4, C3b; assay: SPR (Biacore 2000), Efb-C immobilized, C3b as analyte, 1:1 Langmuir model
Procedure: as §1

[12] = target: T2, Recombinant C3dg (E. coli, pET30 vector …); assay: SPR (Biacore 2000), Efb-C immobilized, C3dg as analyte, 1:1 Langmuir model; Kd=koff/kon

T1 sequence (P01024 23-1663): as the sequence (P01024 23-1663) above

B1: Extracellular fibrinogen-binding protein (Efb), recombinant full-length, S. aureus strain Mu50 (other)
chain: ASEGYGPREKKPVSINHNIVEYNDGTFKYQSRPKFNSTPKYIKFKHDYNILEFNDGTFEYGARPQFNKPAAKTDATIKKEQKLIQAQNLVREFEKTHTVSAHRKAQKAVNLVSFEYKVKKMVLQERIDNVLKQGLVR
IC50, inhibition of the alternative pathway of complement activation (ELISA of C3b deposition, human serum) [1]: ~560 nM | molar excess over C3 needed to reach an IC50 concentration, classical pathway [1]: 50 fold molar excess over C3

B2: Efb-C, C-terminal C3-binding domain of Efb from S. aureus strain Mu50 (other)
chain: FNKPAAKTDATIKKEQKLIQAQNLVREFEKTHTVSAHRKAQKAVNLVSFEYKVKKMVLQERIDNVLKQGLVR
notes: Monomer in solution; also called wild-type Efb-C
koff [2]: 9.9e-05 s⁻¹ | kon [2]: 36000 M⁻¹ s⁻¹ | IC50, inhibition of the alternative pathway of complement activation (ELISA of C3b deposition, human serum) [1]: ~410 nM | koff [3]: 0.000218 s⁻¹ | kon [3]: 284000 M⁻¹ s⁻¹ | Kd (Hydrolyzed C3 (C3(H2O)) [4]): 1.9 nM | fold decrease in affinity compared to native C3 and C3(H2O) (C3b [5]): ~3 fold | fold difference in affinity to C3dg (C3b [5]): ~10 fold | dissociation rate relative to that of native C3 (Hydrolyzed C3 (C3(H2O)) [6]): > 70 % greater | Kd (C3b [7]): 8.8 nM | koff (Hydrolyzed C3 (C3(H2O)) [8]): 0.000169 s⁻¹ | kon (Hydrolyzed C3 (C3(H2O)) [8]): 88900 M⁻¹ s⁻¹ | Kd [9]: 2.8 nM | binding result (C3c): no binding (tested: 200 nM) | binding result [10]: no binding (tested: 1:100 dilution of human serum) | koff (C3b [11]): 0.000209 s⁻¹ | kon (C3b [11]): 23900 M⁻¹ s⁻¹ | Kd [12]: 0.8 nM

B3: SAV1155/Ehp (Efb Homologous Protein), recombinant mature form, S. aureus strain Mu50 (other)
chain: QTKNVEAAKKYDQYQTNFKKQVNKKVVDAQKAVNLFKRTRTVATHRKAQRAVNLIHFQHSYEKKKLQRQIDLVLKYNTLK
notes: A recombinant form corresponding to the predicted mature protein
IC50, inhibition of classical activation of the complement pathway (ELISA detecting fixed C3b to Ag-Ab complex) [1]: 590 nM | classical pathway inhibition relative to Efb, on a molar basis [1]: ~2 fold | classical pathway inhibition relative to Efb-C, on a molar basis [1]: ~50 fold | binding result [10]: no binding (tested: 1:100 dilution of human serum)
